Results on 28 sequences are retold here after the supplement of paper PMC9170038.

This series has as its system MS2 coat protein. The series can be described thus: apparent KD of MS2 coat protein; designed switch direction (-1 OFF switch, 1 ON switch): 1; higher = weaker reporter binding. An outline of the steps:
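An oligonucleotide input, 200 uM small-molecule ligand, or no input was present during titration of SNAP-549-labelled MS2 coat protein, which was doubled from 0.7 or 1.5 nM to 3 µM. Designed RNA switches had been transcribed on Illumina chips by stalled E. coli RNA polymerase. Apparent KD per design is the median over clusters of curves fitted to normalised cluster fluorescence.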

The mark [1] stands for this setting: Eterna round: R95, input ligand: FMN 200 uM.
[2] abbreviates: Eterna round: R95, input ligand: microRNA oligo, concentration not stated.
Setting [3] is: Eterna round: R95, input ligand: none.
The mark [4] stands for this setting: input ligand: microRNA oligo, concentration not stated.

Consider “GGAGCCGGCACCGAGGAUAUUCAUAUUAAAACAUGAGGAUCACCCAUGUACGCCAGAAGGCGUUGGGAGAAGGCGGAUCGGCUCG [Xeonanis - 22] (puzzle: Same State 2)”, for which the “apparent KD of MS2 coat protein” value is, setting by setting: under setting [1], 0.0576 µM; under setting [2], 0.0799 µM; under setting [3], 0.362 µM.
Take “GGAGCCGGCCUAGGAUAUUUCAUAAAAUAACAUGAGGAUCACCCAUGUAGGCCAGAAGGCCUUGGGAAGAAGGAGGUCGGCUCC [Loop Effect - U28] (Eterna round: R96, puzzle: Same State NG 2)”: the “apparent KD of MS2 coat protein” value runs as follows: (input ligand: FMN 200 uM) 0.0134 µM; under setting [4], 0.0231 µM; (input ligand: none) 0.0444 µM.
For “GGAGCCGGCCUAGGAUAUUUCAUCAAAAAACAUGAGGAUCACCCAUGUAGGCCAGAAGGCCUUGGGAAGAAGGAGGUCGGCUCC [Loop Effect - C24] (Eterna round: R96, puzzle: Same State NG 2)”, the “apparent KD of MS2 coat protein” value is 0.0102 µM (input ligand: FMN 200 uM), 0.0146 µM under setting [4] and 0.019 µM (input ligand: none).
Consider “GGAGCCUGCACUGAGGAUAUUCGUAGUGUAACAUGAGGAUCACCCAUGUGUCGCCGUAGCGACUGGGAGAAGGCAGUGCGGCUCG [JL-ss2-3.07 ViennaUCT mod] (puzzle: Same State 2)”, for which the “apparent KD of MS2 coat protein” value runs as follows: under setting [1], 0.0259 µM; under setting [2], 0.0484 µM; under setting [3], 0.0843 µM.
The like results for “GGAGCUGGCACCGAGGAUAUUCAUAUUAAAACAUGAGGAUCACCCAUGUAGGCCAGAAGGCCUUGGGAGAAGGCGGAUCAGCUCG [Xeonanis - 12] (puzzle: Same State 2)” were, in that order, 0.0308 µM, 0.532 µM and 0.532 µM.
Turning to “GGAUGACGGACAGGAUAUUGGUGCUAAUGGUGUCAAGAAGGGUCUUCGAUAUAUACGACCAGUUACAUGAGGAUCACCCAUGUU [JR_SSNG1_Sub034] (Eterna round: R96, puzzle: Same State NG 1)”, the “apparent KD of MS2 coat protein” value was determined as 0.0202 µM (input ligand: FMN 200 uM), 0.0305 µM under setting [4] and 0.04 µM (input ligand: none).
Taken in the same sequence, the figures for “GGAUGAUAGAUAGGAUAUUGAUUGUAAUUAUGUCAAGAAGGAUCUUUGAUUUAAACGACCAGUUACAUGAGGAUCACCCAUGUU [JR_SSNG1_Sub087] (Eterna round: R96, puzzle: Same State NG 1)” were 0.0233 µM, 0.0304 µM and 0.0436 µM.
For the sequence “GGAUGAUUAAUAGGAUAUUAUUUGUAAAAUGGUUAAGAAGGAUUAAUGAUUUAAACGACCAGAUACAUGAGGAUCACCCAUGUA [JR_SSNG1_Sub091] (Eterna round: R96, puzzle: Same State NG 1)”, the “apparent KD of MS2 coat protein” value under setting [4] was found to be 0.0195 µM.
As to “GGCACAAAAGCACAGGAUAUGCAAAAGAACACAUGAGGAUCACCCAUGUAGCCAAAUAACGGGCAGCAGAAGGGUGGGACUGCCA [Ceridi] (puzzle: Same State 2)”, the “apparent KD of MS2 coat protein” value by setting is: under setting [1], 0.0782 µM; under setting [2], 0.693 µM; under setting [3], 0.485 µM.
The like results for “GGCAGGUGCAGGCUUGCUUGCACCUGGAAACAUGAGGAUCACCCAUGUUUGGGACAAGCUUUGCUCCUCGUCUUAUC [JL ViennaUCT Isusreraar mod 1] (puzzle: Sensor for hsa-mir-208a)” were, in that order, 0.179 µM, 0.0431 µM and 0.232 µM.
In the case of “GGCAGGUGCAGGCUUGCUUGCACCUGGAAACAUGAGGAUCACCCAUGUUUGGGACAAGCUUUGCUCUUCGUUUUGUC [JL ViennaUCT Isusreraar mod 4] (puzzle: Sensor for hsa-mir-208a)”, the “apparent KD of MS2 coat protein” value under setting [1] amounted to 0.0353 µM, the “apparent KD of MS2 coat protein” value under setting [2] is 0.0404 µM and the “apparent KD of MS2 coat protein” value under setting [3] came to 0.047 µM.
As to “GGCCAGAGUCAAGGAUAUGCUACCGUUUCGGUAGCAGAAGGUGAUCACAUGAGGAUCACCCAUGUAUACGCUGGAAAGCGGGCC [JL SSNG1 3.64] (Eterna round: R96, puzzle: Same State NG 1)”, the “apparent KD of MS2 coat protein” value was found to be 0.452 µM (input ligand: FMN 200 uM), 0.48 µM under setting [4] and 1.43 µM (input ligand: none).
As for “GGCCGGCCGAACGGAGGGCCACAUGAGGAUCACCCAUGUACAUAGGAUAUCAUGUCAACGAGGCAUGAGAAGGGUGAUUAAAGC [Orenriaran] (Eterna round: R96, puzzle: Same State NG 3)”, the “apparent KD of MS2 coat protein” value reads like this: (input ligand: FMN 200 uM) 0.065 µM; under setting [4], 0.0729 µM; (input ligand: none) 0.0577 µM.
The like results for “GGCGAACAGGCCGACAUGAGGAUCACCCAUGUGGCCUCAUGUCAGGAUAUCGGGAAGGAGGAAACCGAGAAGGGACGGUGAGCC [AK SSNG3-V2-44] (Eterna round: R96, puzzle: Same State NG 3)” were, in that order, 0.0889 µM, 0.0056 µM and 0.0651 µM.
For “GGCGAACAGGCUAACAUGAGGAUCACCCAUGUGGACUCAUGUUAGGAUAUCGGGAAGGAGGAAACCGAGAAGGGACGGUGAGCU [AK SSNG3-V2-45] (Eterna round: R96, puzzle: Same State NG 3)”, the “apparent KD of MS2 coat protein” value by setting is: (input ligand: FMN 200 uM) 0.191 µM; under setting [4], 0.018 µM; (input ligand: none) 0.0341 µM.
The like results for “GGCGAACAGGCUAACAUGAGGAUCACCCAUGUGGACUUCGUGUAGGAUAUCGGGAAGGAGGAAACCGAGAAGGGCAAAGAAGCC [AK SSNG3-V2-49] (Eterna round: R96, puzzle: Same State NG 3)” were, in that order, 0.195 µM, 0.0882 µM and 0.0937 µM.
Regarding “GGCGCGGUCUCGCAGGAUAUCCACAAUCCUACAUGAGGAUCACCCAUGUCGCUGCAGGAUAUUAGGGAGAAGGGUGAUGCCGCGG [Bereri] (puzzle: Same State 2)”, the “apparent KD of MS2 coat protein” value was 0.02 µM under setting [1], 0.0304 µM under setting [2] and 0.0416 µM under setting [3].
In the case of “GGCGUCUGUCAAGGAUAUGCUACCGUUUCGGUAGCAGAAGGUGAUCACAUGAGGAUCACCCAUGUUUAGGCCAACAGGCCCGCC (Eterna round: R96, puzzle: Same State NG 1)”, the “apparent KD of MS2 coat protein” value by setting is: (input ligand: FMN 200 uM) 1.27 µM; under setting [4], 0.222 µM; (input ligand: none) 1.41 µM.
Turning to “GGUAAACAUGAGGAUCACCCAUGUAAUAAUAUGGGAGGAUAUGGGAAUUAAUUAAUUAAACCAGAAGGCCUAAUGU [Mat - Same State 1 - D87] (puzzle: Same State 1)”, the “apparent KD of MS2 coat protein” value reads like this: under setting [1], 0.0531 µM; under setting [2], 0.536 µM; under setting [3], 0.519 µM.
Turning to “GGUAAGAAUUAAGGAUAUCGAGUACAUAUGUUUAACAUGAGGAUCACCCAUGUGGGUUGCGGUAUCGAGAAGGUAAAAUAUAAG [Mat - same State NG 2 - JL mod - D64] (Eterna round: R96, puzzle: Same State NG 2)”, the “apparent KD of MS2 coat protein” value (input ligand: FMN 200 uM) was found to be 0.0518 µM, the “apparent KD of MS2 coat protein” value under setting [4] is 0.0264 µM and the “apparent KD of MS2 coat protein” value (input ligand: none) worked out at 0.0757 µM.
In the case of “GGUACACAUGAGGAUCACCCAUGUCGUAUGACAUGAGGAUAUGUACAGACUUCGGUCUGUACAGAAGGCAUGUGUC [SS1 - 1011 Omei Mod 4] (puzzle: Same State 1)”, the “apparent KD of MS2 coat protein” value under setting [2] is 0.0245 µM.
Turning to “GGUACCAACACAGGAUAUGCUAUCCUUUGGGUAGCAGAAGGGUGAAACAUGAGGAUCACCCAUGUGGUGCCAGGGCGUGAGCCC [JL SSNG1 1.93] (Eterna round: R96, puzzle: Same State NG 1)”, the “apparent KD of MS2 coat protein” value by setting is: (input ligand: FMN 200 uM) 0.108 µM; under setting [4], 0.854 µM; (input ligand: none) 2.19 µM.
Taken in the same sequence, the figures for “GGUAGGUUACUACCAAACAUGAGGAUCACCCAUGUAAAUGGGAAGGAUAUGGUACCGUUUCGGUACCAGAAGGUCCAAAAUAUU [JL Fiskers NG3ss - 2 final mod] (Eterna round: R96, puzzle: Same State NG 3)” were 0.418 µM, 0.356 µM and 1.52 µM.
The like results for “GGUAGGUUACUACCAACACAUGAGGAUCACCCAUGUUUUCAUGAGGAUAUGGUACCUAUUUGGUACCAGAAGGCAUGGUUAAUU [Fiskers NG3ss - 18] (Eterna round: R96, puzzle: Same State NG 3)” were, in that order, 0.0486 µM, 0.0768 µM and 0.104 µM.
Taken in the same sequence, the figures for “GGUAGGUUACUACCAAUCUACAUGAGGAUCACCCAUGUGUGGAAGGAUAUGGUACCUAUUUGGUACCAGAAGGUCCAAUUAAUU [Fiskers NG3ss - 7] (Eterna round: R96, puzzle: Same State NG 3)” were 0.179 µM, 0.0647 µM and 0.153 µM.
“GGUAGGUUACUACCAGACAUGAGGAUCACCCAUGUAAGUGGGAAGGAUAUGGUACCGUUUCGGUACCAGAAGGUCCUAAAUGAG [JL SSNG3 1.46] (Eterna round: R96, puzzle: Same State NG 3)”: the “apparent KD of MS2 coat protein” value (input ligand: FMN 200 uM) amounted to 0.332 µM, the “apparent KD of MS2 coat protein” value under setting [4] came out at 1.65 µM and the “apparent KD of MS2 coat protein” value (input ligand: none) is 1.22 µM.
The like results for “GGUAGGUUACUACCAGACAUGAGGAUCACCCAUGUAAGUGGGAAGGAUAUGGUACCUUUUAGGUACCAGAAGGUCCAUAUAUUC [JL SSNG3 1.44] (Eterna round: R96, puzzle: Same State NG 3)” were, in that order, 0.178 µM, 0.637 µM and 0.849 µM.
For the sequence “GGUAUCGACACAGGAUAUGCUAUCCUUUGGGUAGCAGAAGGGUGGACAUGAGGAUCACCCAUGUGGGUGCCAGGGCGUGAGCCC [JL SSNG1 1.84] (Eterna round: R96, puzzle: Same State NG 1)”, the “apparent KD of MS2 coat protein” value (input ligand: FMN 200 uM) amounted to 0.234 µM, the “apparent KD of MS2 coat protein” value under setting [4] came out at 0.0211 µM and the “apparent KD of MS2 coat protein” value (input ligand: none) came to 1.04 µM.
